The source of these data is PMC6344859, “Structural basis for acceptor RNA substrate selectivity of the 3′ terminal uridylyl transferase Tailor”.

For data set [1], the target named is T1, Tailor (DmTailor180-560) (Drosophila melanogaster, UniProt Q9VI58 180-560). The data set can be described thus: crystal structure (2.0 A); two Mg2+; Crystallization conditions not in material; protein stock 20 mM HEPES pH 7.0, 150 mM KCl, 2 mM MgCl2, 1 mM DTT. Particulars: protein: recombinant; tags: none after TEV cleavage (His6-MBP removed); single strand.
T1 sequence (Q9VI58 180-560): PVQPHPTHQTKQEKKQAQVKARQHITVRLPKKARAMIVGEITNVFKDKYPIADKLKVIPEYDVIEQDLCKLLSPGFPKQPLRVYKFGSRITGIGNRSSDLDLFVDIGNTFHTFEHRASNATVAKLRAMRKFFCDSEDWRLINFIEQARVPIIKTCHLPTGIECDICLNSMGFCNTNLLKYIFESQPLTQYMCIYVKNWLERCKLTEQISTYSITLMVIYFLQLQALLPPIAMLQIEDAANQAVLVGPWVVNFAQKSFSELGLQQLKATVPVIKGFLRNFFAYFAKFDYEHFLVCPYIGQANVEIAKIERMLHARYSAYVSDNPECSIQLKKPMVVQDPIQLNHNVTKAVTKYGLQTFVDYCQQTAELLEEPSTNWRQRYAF

Data set [2] deals with T1, Tailor (DmTailor180-560). Kind of data set: crystal structure (1.85 A); two Mg2+; Crystallization conditions not in material; protein stock 20 mM HEPES pH 7.0, 150 mM KCl, 2 mM MgCl2, 1 mM DTT. Particulars: protein: recombinant; tags: none after TEV cleavage (His6-MBP removed); single strand.

As to UUUUUU (ssRNA) [U6], the binding result in data set [1] was “binds”.

As for CACAGU (ssRNA), in data set [2], the binding result is recorded as “binds”.
